Data: article PMC4434323

Key:
[1] = tested on: T1, nhr-216 (T09D3.4) (Caenorhabditis elegans)
T1 sequence: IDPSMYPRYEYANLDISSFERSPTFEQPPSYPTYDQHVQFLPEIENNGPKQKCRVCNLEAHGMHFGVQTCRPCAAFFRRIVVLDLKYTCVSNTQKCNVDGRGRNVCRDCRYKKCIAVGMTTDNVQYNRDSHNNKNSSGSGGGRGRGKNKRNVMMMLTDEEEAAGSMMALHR

[2] = target: T2, nhr-204 (R02C2.4) (Caenorhabditis elegans) (UniProt O44543)
T2 sequence: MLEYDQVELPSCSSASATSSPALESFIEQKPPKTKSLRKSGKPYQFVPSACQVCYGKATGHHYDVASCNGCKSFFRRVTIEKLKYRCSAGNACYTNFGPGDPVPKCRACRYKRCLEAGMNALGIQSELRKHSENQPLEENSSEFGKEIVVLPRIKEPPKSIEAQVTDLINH

[3] = target: T3, nhr-1 (R09G11.2) (Caenorhabditis elegans) (UniProt Q21878)
T3 sequence: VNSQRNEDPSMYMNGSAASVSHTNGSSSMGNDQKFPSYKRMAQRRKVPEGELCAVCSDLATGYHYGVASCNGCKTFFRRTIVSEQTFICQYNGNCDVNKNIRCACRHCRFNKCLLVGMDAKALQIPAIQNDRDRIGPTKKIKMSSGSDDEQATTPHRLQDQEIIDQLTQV

[4] = target: nhr-34 (F58G6.5) (Caenorhabditis elegans) (UniProt Q21006)
Sequence of nhr-34 (F58G6.5) (Caenorhabditis elegans) (Q21006 99-268): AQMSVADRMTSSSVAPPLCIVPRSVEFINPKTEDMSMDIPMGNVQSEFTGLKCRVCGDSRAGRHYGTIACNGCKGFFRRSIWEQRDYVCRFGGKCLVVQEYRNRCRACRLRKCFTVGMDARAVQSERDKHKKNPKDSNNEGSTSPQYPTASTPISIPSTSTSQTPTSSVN

[5] = target: T4, nhr-3 (H01A20.1) (Caenorhabditis elegans) (UniProt Q9XTJ4)
T4 sequence: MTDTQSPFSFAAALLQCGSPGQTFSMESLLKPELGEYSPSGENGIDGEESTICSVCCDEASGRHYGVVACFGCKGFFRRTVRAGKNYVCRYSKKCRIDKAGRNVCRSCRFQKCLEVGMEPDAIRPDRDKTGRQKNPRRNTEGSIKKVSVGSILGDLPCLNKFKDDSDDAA

[6] = target: T5, nhr-46 (C45E5.6) (Caenorhabditis elegans) (UniProt Q95QR2)
T5 sequence: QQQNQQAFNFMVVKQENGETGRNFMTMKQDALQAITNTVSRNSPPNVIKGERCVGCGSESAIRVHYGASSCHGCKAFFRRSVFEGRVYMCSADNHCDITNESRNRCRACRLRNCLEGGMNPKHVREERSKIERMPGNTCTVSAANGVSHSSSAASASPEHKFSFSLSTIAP

[7] = target: T6, nhr-66 (T09A12.4) (Caenorhabditis elegans) (UniProt H2KYJ8)
T6 sequence: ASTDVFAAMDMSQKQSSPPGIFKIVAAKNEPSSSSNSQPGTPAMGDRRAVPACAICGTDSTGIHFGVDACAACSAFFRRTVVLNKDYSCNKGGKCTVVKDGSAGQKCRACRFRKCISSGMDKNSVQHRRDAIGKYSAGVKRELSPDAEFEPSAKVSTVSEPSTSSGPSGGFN

[8] = target: atf-7 (C07G2.2) (Caenorhabditis elegans) (UniProt Q86MD3)
Sequence of atf-7 (C07G2.2) (Caenorhabditis elegans) (Q86MD3 339-508): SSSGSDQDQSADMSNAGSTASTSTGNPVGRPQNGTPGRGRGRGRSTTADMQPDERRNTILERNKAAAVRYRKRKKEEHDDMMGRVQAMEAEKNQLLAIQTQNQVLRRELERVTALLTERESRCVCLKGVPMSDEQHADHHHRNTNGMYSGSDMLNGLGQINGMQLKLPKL

[9] = target: T7, atf-5 (T04C10.4) (Caenorhabditis elegans) (UniProt Q22156)
T7 sequence: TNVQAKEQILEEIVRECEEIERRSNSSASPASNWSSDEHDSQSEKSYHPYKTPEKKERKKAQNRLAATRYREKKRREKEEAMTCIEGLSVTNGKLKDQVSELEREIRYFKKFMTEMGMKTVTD

[10] = target: T8, atf-6 (F45E6.2) (Caenorhabditis elegans) (UniProt Q20435)
T8 sequence: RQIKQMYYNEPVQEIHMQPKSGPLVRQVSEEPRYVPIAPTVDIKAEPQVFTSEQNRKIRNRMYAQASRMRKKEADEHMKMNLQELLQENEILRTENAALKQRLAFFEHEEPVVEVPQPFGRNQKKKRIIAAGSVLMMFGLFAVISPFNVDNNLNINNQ

TGTCAGAA (double strand) [8-mer TGTCAGAA]
binding signal (PBM E-score (-0.5 to 0.5)) [1]: 0.496

GTGATCAA (double strand) [8-mer GTGATCAA]
binding signal (PBM E-score (-0.5 to 0.5)) [2]: 0.478
binding signal (PBM E-score (-0.5 to 0.5)) [3]: 0.472

AGATCAAT (double strand) [8-mer AGATCAAT]
binding signal (PBM E-score (-0.5 to 0.5)) [4]: 0.486
binding signal (PBM E-score (-0.5 to 0.5)) [5]: 0.473
binding signal (PBM E-score (-0.5 to 0.5)) [6]: 0.49

AGAGATCA (double strand) [8-mer AGAGATCA]
binding signal (PBM E-score (-0.5 to 0.5)) [4]: 0.488
binding signal (PBM E-score (-0.5 to 0.5)) [5]: 0.462
binding signal (PBM E-score (-0.5 to 0.5)) [6]: 0.478
binding signal (PBM E-score (-0.5 to 0.5)) [3]: 0.474

AAGATCAC (double strand) [8-mer AAGATCAC]
binding signal (PBM E-score (-0.5 to 0.5)) [5]: 0.471

AAGTCAGA (double strand) [8-mer AAGTCAGA]
binding signal (PBM E-score (-0.5 to 0.5)) [1]: 0.493

GTCAGAAA (double strand) [8-mer GTCAGAAA]
binding signal (PBM E-score (-0.5 to 0.5)) [1]: 0.496

AGTGATCA (double strand) [8-mer AGTGATCA]
binding signal (PBM E-score (-0.5 to 0.5)) [3]: 0.495

AATGATCA (double strand) [8-mer AATGATCA]
binding signal (PBM E-score (-0.5 to 0.5)) [3]: 0.493

AGATCAAC (double strand) [8-mer AGATCAAC]
binding signal (PBM E-score (-0.5 to 0.5)) [4]: 0.478
binding signal (PBM E-score (-0.5 to 0.5)) [5]: 0.467
binding signal (PBM E-score (-0.5 to 0.5)) [6]: 0.483

ATAGATCA (double strand) [8-mer ATAGATCA]
binding signal (PBM E-score (-0.5 to 0.5)) [5]: 0.466

ACAGATCA (double strand) [8-mer ACAGATCA]
binding signal (PBM E-score (-0.5 to 0.5)) [5]: 0.456

GGTGATCA (double strand) [8-mer GGTGATCA]
binding signal (PBM E-score (-0.5 to 0.5)) [3]: 0.488

AATGTAGT (double strand) [8-mer AATGTAGT]
binding signal (PBM E-score (-0.5 to 0.5)) [7]: 0.48

AATGACGT (double strand) [8-mer AATGACGT]
binding signal (PBM E-score (-0.5 to 0.5)) [8]: 0.497
binding signal (PBM E-score (-0.5 to 0.5)) [9]: 0.459

AACTACAC (double strand) [8-mer AACTACAC]
binding signal (PBM E-score (-0.5 to 0.5)) [7]: 0.486

GACCAAAA (double strand) [8-mer GACCAAAA]
binding signal (PBM E-score (-0.5 to 0.5)) [2]: 0.476

AATTGATC (double strand) [8-mer AATTGATC]
binding signal (PBM E-score (-0.5 to 0.5)) [2]: 0.477

ATCAGAAC (double strand) [8-mer ATCAGAAC]
binding signal (PBM E-score (-0.5 to 0.5)) [1]: 0.494

ACTGATCA (double strand) [8-mer ACTGATCA]
binding signal (PBM E-score (-0.5 to 0.5)) [2]: 0.477
binding signal (PBM E-score (-0.5 to 0.5)) [3]: 0.478

ACTACACT (double strand) [8-mer ACTACACT]
binding signal (PBM E-score (-0.5 to 0.5)) [7]: 0.487

ACTACAAC (double strand) [8-mer ACTACAAC]
binding signal (PBM E-score (-0.5 to 0.5)) [7]: 0.482

GATGATCA (double strand) [8-mer GATGATCA]
binding signal (PBM E-score (-0.5 to 0.5)) [3]: 0.488

ATTCTGAC (double strand) [8-mer ATTCTGAC]
binding signal (PBM E-score (-0.5 to 0.5)) [1]: 0.495

CAGACCAA (double strand) [8-mer CAGACCAA]
binding signal (PBM E-score (-0.5 to 0.5)) [2]: 0.479

TGATCAAA (double strand) [8-mer TGATCAAA]
binding signal (PBM E-score (-0.5 to 0.5)) [2]: 0.483

GGTCAGAA (double strand) [8-mer GGTCAGAA]
binding signal (PBM E-score (-0.5 to 0.5)) [1]: 0.498

GGACAGAA (double strand) [8-mer GGACAGAA]
binding signal (PBM E-score (-0.5 to 0.5)) [1]: 0.493

CTGACGTA (double strand) [8-mer CTGACGTA]
binding signal (PBM E-score (-0.5 to 0.5)) [9]: 0.455
binding signal (PBM E-score (-0.5 to 0.5)) [10]: 0.474

TAGACCAA (double strand) [8-mer TAGACCAA]
binding signal (PBM E-score (-0.5 to 0.5)) [2]: 0.479

CGTCAGCC (double strand) [8-mer CGTCAGCC]
binding signal (PBM E-score (-0.5 to 0.5)) [9]: 0.491
